Where two headings read alike, the source gives them in different places.
Legend:
[1] = assay type: physicochemical; conditions: for t1/2 @ pH 7.4: buffer; for Rate of exenatide release: 50 μM conjugate
Description: Release rates were determined to be:

[2] = rat, in vivo, iv
Description: The solution was administered by i.v. injection to cannulated male Sprague Dawley rats at 100 μL/100 g body weight. A single animal was used for a complete time course, repeated in duplicate.
Rat serum samples were thawed on ice, and 200 μL was adjusted to pH ˜5.5 by addition of 5 μL of 2M acetic acid.
Proteins were precipitated from 50 μL of acidified rat serum by addition of 150 μL of cold MeOH containing 40 μg/mL Fmoc-Lys (DNP)OH as an internal standard for volume deviations. The samples were kept on ice for 2 hours and centrifuged at 14,000 rpm for 10 min at 4° C. The supernatant was analyzed on a Shimadzu™ HPLC with a Phenomenex® Jupiter® C18 300A 5 μm column (4.6×150 mm) at 40° C. The mobile phase consisted of H2O/0.1% TFA (Buffer A) and ACN/0.1% TFA (Buffer B) at 1 mL/min. […] Quantitation was performed by comparison of peak areas to standard solutions of mPEG-coumarin after MeOH precipitation in rat serum (Sigma-Aldrich) as above. Any volume deviations were corrected using the peak area of the Fmoc-Lys (DNP)OH internal standard in each sample.
Serum samples were treated with 2 volumes of acetonitrile (ACN) and centrifuged. The supernatant was dried, reconstituted in 1% formic acid and applied to HPLC (below). The sample was eluted by a water-ACN gradient containing 1% formic acid. […] HPLC-MS/MS analyses were carried out on a Sciex™ API-5500 mass spectrometer coupled with a Shimadzu™ HPLC system. The Shimadzu™ HPLC system consisted of two LC-30AD HPLC pumps and a SIL-30AC autosampler with a 100 μL loop installed. The chromatographic separations were achieved on a Jupiter® (Phenomenex®) 5 μm C18, 300 Å, HPLC column, 2.0×150 mm, with mobile phase gradients. The mass spectrometer was operated in positive ESI mode and the resolution setting used was unit for both Q1 and Q3. […] Peak-area integrations were performed using Analyst software (version 1.5.2) from AB Sciex™.

Row | Substance | t1/2 @ pH 7.4 [1] [h] | Rate of exenatide release ([1]; pH 8.5, 100 mM bicine) | Rate of exenatide release ([1]; pH 9.5, 100 mM sodium borate) | Conjugate clearance rate [2] [h⁻¹] | Conjugate clearance t1/2 [2] [h] | Plasma half-life of the conjugate [2] [h]
1 | 4-chlorophenyl-SO2: DBCO-Lys(DEAC)-[GL4-400] 40 kDa PEG conjugated to N-[7-azido-1-(4-chlorophenylsulfonyl)-2-heptyloxycarbonyl]-exenatide | 59 | .00248 h⁻¹ |  |  |  | 
2 | CH3—SO2: DBCO-Lys(DEAC)-[GL4-400] 40 kDa PEG conjugated to N-[7-azido-1-(methylsulfonyl)-2-heptyloxycarbonyl]-exenatide | 483 |  | .00301 h⁻¹ |  |  | 
3 | Phenyl-SO2: DBCO-Lys(DEAC)-[GL4-400] 40 kDa PEG conjugated to N-[7-azido-1-(phenylsulfonyl)-2-heptyloxycarbonyl]-exenatide | 133 |  | .00726 h⁻¹ | 0.015 | 46 | 28

From patent US20140256626A1 (priority 2011, published 2014)
